# Data published in patent US20220348932A1.
# Target: NADH-dependent methanol dehydrogenase (MeDH) from Bacillus methanolicus MGA3, internal laboratory designation 2315 (tested as purified 2315A) (Bacillus methanolicus MGA3)
# Test: cell-based or functional assay
substance,measurement,value
"activator protein (ACT) from Bacillus methanolicus MGA3, internal laboratory designation 2317 (tested as purified 2317A) (enzyme)","ratio of ACT to MeDH in an in vitro methanol dehydrogenase activation test (5 M methanol, 2 mM NAD, 10 µM MeDH 2315A, pH 7.4) (ACT:MeDH ratio)",10
